Assay results taken from the DeepSol protein solubility set.

Assay: soluble on expression in E. coli; label from the status in PepcDB or PDB records

| Sequence | soluble on expression in E. coli |
| --- | --- |
| MIGAILAGGYGKRLKPITDSIPKALVEIKDNYTIMDRQLFDFSIMGIEAVYILSGYLGNKIEERYGSRYRDMNIYYLREEKPLGTLYSLRNLIDEVKDDDIVLRNGDTVTDVNFLNFLKKAQDQKYYITMYVTRMKSPFGIVETFGDQIVQFREKPELNHYINAGLYYIKSDAFPYFFEKYIDRDLETTVFPRMAREGLIGSYTEEAMWIGIDSEKDLERIRADYRNREDYPWGYLKVLYDDDRSRLLEYAIKAGSDTEIDCGDGCILRIQSGLGTFGDSSDEKFRNGDVRSISGKVRVNAFENTRLELIISKKLEHHHHHH | soluble |
| MDDLMKDRIDLLIDYIMKHCLWQFHSRSWDRKRQNEGILTKTTQLLCDEPVDLGTPADKCYWVDAVCLADAYKSRYPWLKTMDKDDIKALMGALHERLDHLTITGSLNLELTDQHYLEHHHHHH | soluble |
| SMSEATPCIKAISPSEGWTTGGATVIIIGDNFFDGLQVVFGTMLVWSELITPHAIRVQTPPRHIPGVVEVTLSYKSKQFCKGAPGRFVYTALNEPTIDYGFQRLQKVIPRHPGDPERLPKEVLLKRAADLVEALYGMPHNNQEIILKRAADIAEALYSV | soluble |
| SKSNLEYSFSNILKNIFSPIREKESVKKVIYYSIPIALTTASYRLVNDLDGIFILSMLGAYDNGVYGY | not soluble |
| MAHHHHHHMQSALRSFSEAAVGLGTSQEKLAAFIAFTNQEKLRVPQLALLRELRRQLVAEEAIAERGRHHQQPDYGVSKRSSNASAAYQDSGDQNAHLSDLRKVNVLCSSKTEKSLQCSKTLSLNHQRGDSTTGAHKTRFQSPRFSSLKSVPFAQAGAANDEYDEDIRGFGARDFAPTPTPSGKLPYKPRDVCLLNSSYFANRSIRSDGSNPCGAPLPTSSPGTPSPSWRGAMTATAFAKLPAPSQQPLLAVDSSLGTVIDVDSEFSLVREAEDTAESRFAPKQDLSIVSMNSSQLELLNIAELAASSSEAALAQPPAAAVLTGIREKVADGSLSKHTVTLFHESNEKRSRGVAASTAAEVAVASVTASIAERKPAPSSQPSTQRGLCGYTNPGNFASLLVPNVLARPVSPPAERTVAPFSLRVAPASTSPSDKEKAVTLEQQEGMASTTAVTIGSTDSAGPAAASVASRLPSPPLITQAEENDGFVYYCANPSHSVIDSYAGRRKLLAVTVKL | not soluble |
| MSLKSAKDVQTITKITIDFGGEEIFLDFDEVTKHYLNQPLSAKTVFALTKELTQVLYNAGYVTSAIGLKSSKIKNGEVEFVVLWGKVNDILVEEQQASLFKDKAMLFVLPNLKGKVLRIYDVDQLIEILNTGNKTAKVNVIAANEKSMSNLSIERHRTSYPQVSLSLNNSGEGSNAEGRNQATLSISWSDLLGTNDRWSFSTGYRIYKDRQANRQQNYSLSYTQPFSFSTLDIKLSYSGYKKQLRGIHTHGSSGETKQASFKLSHTLLRNKDMILSLYGELEFKRRLSYFGDIRIGKYHNNKLNIGLSYVTNLGHGKLYSDLSYSNGLRWFNANHSAYNSHRDKTLRLVSGSINWQRPFVFFNRGMSYQFRLGAQYGFDSLYGENQFSIGDEYTVRGFKGGAGSGDRGFYISQTVTIPFYPQKSYLSYINPFLGIDIGKVHAKRPHHVVDTFAGFAFGVKAQIKSLALSLTYAKPINGVGTFEESNKKSVFYFTGSVSFEGHHHHHH | not soluble |
| MGDVVEMTSELGFKYSILASGSTGNSFYLETPEKKILVDAGLSGKKITSLLAEIDRDPSDLDAILVTHEHKDHIHGVGVLARKYGMDIYANEKTWQIMDSKNMLGKVDNSQKHIFSRGKLLTFGDIDIESFGVSHDAINPQFYRFMKDGKSFVMLTDTGYVSDRMAGLIENADGYLIESNHDIEILRAGSYPWSTKQRILSDQGHLCNEDGADAMIRTIGNKTKKIYLGHLSKENNIKELAYMTMENQLARADFGVGTDFKIFVTSPDTATPLTDILEHHHHHH | not soluble |
| MTAAPYNYSYIFKYIIIGDMGVGKSCLLHQFTEKKFMADCPHTIGVEFGTRIIEVSGQKIKLQIWDTAGQERFRAVTRSYYRGAAGALMVYDITRRSTYNHLSSWLADAKSLTNPNTAIFLIGNKADLEDQRDVPYEEAKAFAEENGLTFLECSAKTGSNVEDAFLETAKQIYQNIQDGSLDLNAADTGVQPKQNLPRAAENNGKKDCNC | not soluble |
| MTRYALLVRGINVGGKNKVVMAELRQELTNLGLEKVESYINSGNIFFTSIDSKAQLVEKLETFFAVHYPFIQSFSLLSLEDFEAELENLPAWWSRDLARKDFLFYTEGLDVDQVIATVESLELKDEVLYFGKLGIFWGKFSEESYSKTAYHKYLLKVPFYRHITIRNAKTFDKIGQMLKK | soluble |
| MGSDKIHHHHHHMGEHFLLEMVDITKEFPGVKALDRVQLKVRKGSVHALMGENGAGKSTLMKILIGMYKPNEGKIIFDGEEVTFNSINDALDKGISMIHQELSPIPEMTVAENIFLGREPTFGKSGLVDNKKLIEMTRNLLESLEINIDPRKKMGELSIANTQMIEIAKAISFHSKLVIMDEPTSAITEKEVAQLFKMIESLKKKGVGIIYITHKMSELDEIADDISVFRDGKYIGTDTAKNLTRDDLIKMMVGRELNQIFDKPEPKLGEVILSVKSLTKQDYFEDVSFEVRKGEIVGFAGLMGSGRTEVLETIFGVKEAESGEIFVNGQKARIKSPQDAVKNNMGFLTEDRKLTGLFLPLSVRENMITVNIDKYINMGWLNGKRVKKDCEQQKQKLYIKTPSIEQIVENLSGGNQQKVLLARWLLKNPDILFLDEPTRGIDVGAKSEFYNLIFELASQGKAIVVVSSEMAEILGLCDRILVMHEGKVTGELTREEANQEKIMQYATGQAKMAKKLHVHNNFEQTVTANKIEIG | not soluble |
| MTLEISNDYGKIDISNEVIASVVGGKAVECYGIVGMASRQQVRDGIAEILGHENYAKGIKVTENNGVVDIDMYIIVSYGVKISEVANNVQSTVKYTLEKSLNVSVNSINIYVQGVRVNNTGKKALEHHHHHH | not soluble |
| EILPNFFKSARPIEGLRPYTVLETAGRQIYIQEGCYHCHSQLIRPFQAEVDRYGAYSLSGEYAYDRPFLWGSKRIGPDLHRVGDYRTTDWHEKHMFDPKSVVPHSIMPAYKHLFTKKSDFDTAYAEALTQKKVFGVPYDTENGVKLGSVEEAKKAYLEEAKKITADMKDKRVLEAIERGEVLEIVALIAYLNSLGNSRINANQNA | not soluble |
| DRGRMANIFGANNFYYAKSQAMLYTVSQNADFITAGLVDPVFLPLGNQQRAATHLNEPKSQKILFIVAESWGLPANPELQNATFAKLLAQKDRFSVWESGSFPFIGATVEGEMRELCAYGGLRGFALRRAPDEKFARCLPNRLKQEGYATFAMHGAGSSLYDRFSWYPRAGFQEIKTAENLIGKKTCAIFGGVCDSELFGEVSAFFKKHDKGLFYWMTLTSHADYPESDIFNHRLKCTEYGLPAETDLCRNFSLHTQFFDQLADLIQRPEMKGTEVIIVGDHPPPVGNLNETFRYLKQGHVAWLNFKIK | not soluble |
| AHHHHHHGSFKILRKERLAPGINLFEIESPRIAKHAKPGQFVMIRLHEKGERIPLTIADVDISKGSITIVAQEVGKTTRELGTYEAGDYILDVLGPLGKPSHIDYFGTVVMIGGGVGVAEIYPVAKAMKEKGNYVISILGFRTKDLVFWEDKLRSVSDEVIVTTNDGSYGMKGFTTHALQKLIEEGRKIDLVHAVGPAIMMKAVAELTKPYGIKTVASLNPIMVDGTGMCGACRVTVGGEVKFACVDGPEFDAHLVDWDQLMNRLAYYRDLEKISLEKWERERRMV | soluble |
| PFSWMRYIVISRKDLEEDGREILIHEMAHIQNRHSIDLLVADICIFFQWFNPGIWLLKQELQNIHEYEADETVINEGIDAKDYQLLLI | not soluble |
| MSLDAHNFFKAGPYAPLAARMRPQSLDEVVGQRHLLDSGKPLQRLIAGSGDASVILYGPPGTGKTTIASLISAGTGHEFVGLSALNSGVKEIREVIDQARRNLIHGKRTVLFIDEVHRFSKTQQDALLAAVENRTVLLVAATTENPSFSVVAPLLSRSLILQLKPLTHDDIKTVLLHALQDKRGLDNRITISDEALEQLVLLSGGDARRSLTYLEAASESLADGEELTPEIIRHNVDKAIVRYDRDGDQHYDVVSAFIKSMRGSDVDAALHYLARMIDAGEDPRFIARRLVIHASEDVGMADPQALSVAVAASQAVALIGMPEARINLAQATIHLATAPKSNAVITAIDAALADVKQGKTGPVPAHLRDGHYAGAKQLGNAVGYKYPHDDPRGIVEQQYIPNGLEDVVYYRPSEHGAEQRIESYLGKLRRIVRGQREGHHHHHH | soluble |
| MGSDKIHHHHHHYAVQPKDDKKENEALQTSTEEHLPLLTINGTNASSSFIVNSEALLGKEITITAPNGFTVTPTVIAANSGKQKVKVTLNSTKRLTEGKIILRSGDVRSYLKVKGYGTALPVKDIAASPAYKKGNDKEFTKAFTPNSKGYTIEFKIKTDDSEKSFYPYFVNEKGYGFKAYITSNEIGLFNAYKKEITNPATNGKAGGKGKFYNNDGQAHIYRFAITPDNRAFIYRDGIPVDSVRIIDYAPQPNFAEKVGKPVENLLKNPNFEGEFDINPETKLVSRVEGWDVVISDRWNSEQQILPEEIDNNQDLDNHVFEIRPYKWAAGWSDGILMQVVDVVPNENYTLSALLKGGIAKKEGKLTGKMIIEEVQDPEKKVITEIASDNWETYSMDYTTSAECNQIRVSFTVGRGGWGNDIGAVRVDNAKLTGTSRTYSPKFGFIDNTADVEYFTIDESGAYAPAQPEITINIED | not soluble |
| SDITLESLRHIIAQVLPHRDPALVFKDLNVVSMLQEFWESKQQQKAAFPSEGVVVYESLPAPGPPFVSYVTLPGGSCFGNFQCCLSRAEARRDAAKVALINSLFNELPSRRITKEFIMESVQEAVASTSGTLDDADDPSTSVGAYHYMLESNMGKTMLEFQELMTIFQLLHWNGSLKALRETKCSRQEVISYYSQYSLDEKMRSHMALDWIMKERDSPGIVSQELRMALRQLEEARKAGQELRFYKEKKEILSLALTQICSDPDTSSPSDDQLSLTALCGYH | soluble |
| MLPDVQLLKPEVPIGLSRVGATGIKKLVEVQREGKRPIILISTFDVFVDLPAHLKGVNLSRNFEVIDEVLETLTAKPIENIEDLVVEIADHLLKRHEYATKAEARMNSELIMRKRTPKTGQRTQEVVKIFGEATLGRDGSKVIMVGVEVTGITACPCAQELVKASSAERLAKMGFDEETIQKILDAIPVATHNQRGRATLKVQVTDSFKVPIAKLIDVAKSSMSYETYEILKREDELAVVEAAHRNTRFVEDGVRYMAMELLKTFPNAPDDILVFLRQENEESIHQHNVVAERFATFGELRNEIGSPDASGSSAD | soluble |
| MGMVGFRRSRHRRLGAGCGRAGGCMSGVEVITFGCRLNTYESEVMRAEAEKAGLNNAVLVNTCAVTGEAVRQARQAIRRARRDNPHARIIVTGCAAQTEKQTFADMPEVDAVLGNEEKLKSASYRALPDFGVSAEEKLRVNDIMSIKATAPQMVKHIDGHVRAFIQVQNGCDHRCTFCIIPYGRGNSRSVPMGAVVDQARRLTESGYCEIVLTGVDATSYGADLPGEPSLGYLAKTLLKQVPDIIRLRLSSIDSIEADHHLMDLIADEPRFMPHLHLSLQHGDDMILKRMKRRHLRADAIRFCNEVRSLRPDIAFGADMIAGFPTETEEMLENAATLAEECGISSLHVFPYSPREGTPAVRMPQLDRALVKERAGRLRARGEALKQAHLQNMVGSVQTVLVENSGFAHTDNFTLVAAPDLAPRTLAQVAITGHNGKHLNMKLLAADAALEHHHHHH | not soluble |
| MGSDKIHHHHHHENEYITNIDRTFGTRISYEISKRYGELGLEGSRSITIGLKGHAGQSFCAFLAKGVSVTLEGDANDYVGKCLSGGKIVIFPPKAASYKSEENSVIGNVALYGATSGDCWFRGVAGERFAVRNSGANVIVEAVGDHGCEYMTGGRVIVLGSIGRNFAAAMSGGIAYLFAQEDNFSRLINAATVDLDDASTEDLIFVKAK | not soluble |
